Tests used:
[1] = target: T1, recombinant hAng-2 (C-His, R&D Systems) (human, UniProt O15123 19-496); test: SPR, BIAcore T100; hAng-2 C-His captured on anti-His chip, antibody flowed
T1 construct: Bought protein; Captured on an anti-His antibody chip for SPR; also called human Ang2; not shown: C-terminal His tag
T1 sequence: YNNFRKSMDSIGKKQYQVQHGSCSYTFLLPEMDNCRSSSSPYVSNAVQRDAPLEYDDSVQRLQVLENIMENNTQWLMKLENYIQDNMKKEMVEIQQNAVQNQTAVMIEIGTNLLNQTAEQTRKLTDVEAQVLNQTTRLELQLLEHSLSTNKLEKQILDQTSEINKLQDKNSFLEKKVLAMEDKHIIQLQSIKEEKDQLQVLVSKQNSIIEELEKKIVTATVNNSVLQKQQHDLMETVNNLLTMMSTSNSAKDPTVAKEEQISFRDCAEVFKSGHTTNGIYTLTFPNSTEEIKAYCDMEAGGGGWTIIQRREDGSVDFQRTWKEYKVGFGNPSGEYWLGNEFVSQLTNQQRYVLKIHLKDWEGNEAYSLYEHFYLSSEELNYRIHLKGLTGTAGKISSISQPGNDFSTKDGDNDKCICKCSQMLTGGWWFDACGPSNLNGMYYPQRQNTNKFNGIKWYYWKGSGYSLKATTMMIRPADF
Method: To more exactly measure the binding affinity of the anti-Ang2 antibodies to antigen Ang2, the binding affinity of the above antibodies to the antigen was measured by an surface plasmon resonance (SPR) method using BIAcore T100 (GE Healthcare). The SPR method uses refractive index change of light which passes a sensor chip according to the state of materials coated onto the sensor chip, and if an antigen or an antibody is flowed onto a chip coated with the antigen or antibody, it causes changes in refractive index due to their binding and Kd values are thus calculated from the measured values.
First, anti-His antibody was immobilized on a CM5 sensor chip (GE healthcare) up to 8,000 RU levels using a pH 5.0 acetate solution and an amine coupling kit (GE Healthcare). 6 μg/ml of a recombinant hAng-2 (C-His, R&D Systems) protein was flowed onto the chip to be captured at 100 to 200 RU levels.

[2] = target: T2, mouse Ang2 (Accession # NP-031452) (R&D Systems) (mouse, UniProt O35608 19-496); test: ELISA on coated mouse Ang2; 50% binding concentration, which the filing calls Kd
T2 construct: Bought protein coated on the ELISA plate; also called mAng2
T2 sequence (looked up): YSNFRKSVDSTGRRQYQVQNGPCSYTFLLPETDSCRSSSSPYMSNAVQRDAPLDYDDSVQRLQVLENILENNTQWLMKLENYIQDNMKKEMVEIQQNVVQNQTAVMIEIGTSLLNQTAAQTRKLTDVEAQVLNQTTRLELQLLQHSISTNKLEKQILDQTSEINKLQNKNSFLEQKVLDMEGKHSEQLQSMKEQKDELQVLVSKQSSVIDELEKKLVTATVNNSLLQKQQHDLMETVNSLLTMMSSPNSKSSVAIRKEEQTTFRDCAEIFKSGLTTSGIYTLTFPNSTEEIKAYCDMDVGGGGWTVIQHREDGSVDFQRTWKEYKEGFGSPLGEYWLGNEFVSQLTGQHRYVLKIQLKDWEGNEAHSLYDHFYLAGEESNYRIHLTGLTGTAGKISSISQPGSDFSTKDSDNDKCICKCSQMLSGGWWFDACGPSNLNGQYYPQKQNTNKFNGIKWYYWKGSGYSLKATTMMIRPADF
Method: An ELISA was conducted to measure the binding affinity of the antibodies prepared in Example 2 to mouse Ang2(mAng2). MaxiSorp™ flat-bottom plate (Nunc) of 96-well was coated with 5-20 μg/ml of mouse Ang2 (Mouse Ang2; Accession # NP_{—}031452) (R&D Systems). Thereafter, the plate was washed five times with 0.05% (v/v) Tween-20-containing PBS (PBST) and then blocked with 1% (v/v) BSA (bovine serum albumin; Sigma)-containing PBS at a room temperature for 2 hour. Each of the anti-Ang2 antibodies was added to each well of the plate at various concentrations, and the plate was allowed to react at a room temperature for 2 hours.
Thereafter, the plate was washed five times with PBST. Then, a HRP-conjugated anti-mouse IgG antibody (Santacruz) diluted in 1% (v/v) BSA-containing PBS at a ratio of 1:1,000 (v/v) was added in an amount of 50 μl to each well to react at a room temperature for 1 hour and then, the plate was washed five times with PBST. Lastly, 100 μl of TMB substrate (Cell Signaling) was added to each well of the plate to induce color development for 3 min. and then, the reaction was ceased by the addition of 100 μl of Stop solution (Cell Signaling) and OD450 values were measured on a plate reader (Molecular Devices).
From the obtained results, 50% binding concentration (Kd) of the anti-Ang2 antibody to Ang2 protein is obtained, thereby measuring the binding intensity of each of the anti-Ang2 antibodies to Ang2.

hAng1 = target: T3, hAng1 (human, UniProt Q15389 20-498, limits assumed); test: SPR, BIAcore T100
T3 construct: Tested by the same SPR set-up as hAng2; the construct is not described; also called human Ang1
T3 sequence (looked up): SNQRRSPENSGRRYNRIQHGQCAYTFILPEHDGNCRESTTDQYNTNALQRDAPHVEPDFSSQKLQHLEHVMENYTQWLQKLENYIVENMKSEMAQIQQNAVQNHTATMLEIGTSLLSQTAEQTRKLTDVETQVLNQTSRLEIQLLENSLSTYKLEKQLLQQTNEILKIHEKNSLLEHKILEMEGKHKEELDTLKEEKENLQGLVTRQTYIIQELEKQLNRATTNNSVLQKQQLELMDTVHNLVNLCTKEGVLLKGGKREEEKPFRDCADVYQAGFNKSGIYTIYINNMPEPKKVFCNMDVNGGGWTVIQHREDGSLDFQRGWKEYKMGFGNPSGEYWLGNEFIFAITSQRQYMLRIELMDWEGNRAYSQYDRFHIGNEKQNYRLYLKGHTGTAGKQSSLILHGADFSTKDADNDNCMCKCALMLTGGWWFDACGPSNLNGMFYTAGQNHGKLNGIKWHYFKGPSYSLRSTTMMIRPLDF

FLAG-tagged hAng-2 = target: T4, FLAG-tagged hAng-2 (human, UniProt O15123 19-496); test: Ang2:Tie2 competition ELISA; hTie2-Fc coated, 400 ng/ml FLAG-tagged hAng-2, anti-FLAG-HRP detection
T4 sequence: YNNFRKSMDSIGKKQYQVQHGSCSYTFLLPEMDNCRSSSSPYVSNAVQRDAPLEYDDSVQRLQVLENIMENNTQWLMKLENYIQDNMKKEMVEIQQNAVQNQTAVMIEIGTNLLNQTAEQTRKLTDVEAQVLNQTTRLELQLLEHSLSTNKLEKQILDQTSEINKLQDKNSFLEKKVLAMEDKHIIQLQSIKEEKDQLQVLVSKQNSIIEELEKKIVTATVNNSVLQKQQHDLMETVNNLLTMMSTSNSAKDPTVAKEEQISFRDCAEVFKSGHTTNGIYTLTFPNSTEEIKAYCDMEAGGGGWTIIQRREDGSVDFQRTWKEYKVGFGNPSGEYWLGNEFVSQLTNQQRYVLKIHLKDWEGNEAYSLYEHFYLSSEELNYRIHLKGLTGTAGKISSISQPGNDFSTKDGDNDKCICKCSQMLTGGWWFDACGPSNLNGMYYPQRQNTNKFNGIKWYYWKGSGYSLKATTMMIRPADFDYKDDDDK
Method: More specifically, MaxiSorp™ flat-bottom plate (Nunc) of 96-well was coated with hTie2-Fc (R&D Systems) which is a protein bound with 4 μg/ml of Fc of human IgG1. After coating, the plate was washed five times with 0.05% (v/v) Tween-20-containing PBS (phosphate buffer saline) and then blocked with 1% (v/v) BSA (bovine serum albumin; Sigma)-containing PBS at a room temperature for 2 hour.
For Ang2:Tie2 competition ELISA, each anti-Ang2 antibody obtained in Example 2 was placed at various concentrations of 400 nM-0.001 nM into each well coated with the hTie-2/Fc fusion protein along with 1% (v/v) BSA and 400 ng/ml of a FLAG-tagged hAng-2 and then, the plate was allowed to react at a room temperature for 2 hours and washed five times with PBST. After that, a HRP-conjugated anti-FLAG antibody (Sigma) diluted in 1% (v/v) BSA-containing PBS at a ratio of 1:5,000 (v/v) was added in an amount of […] to each well to react at a room temperature for 1 hour and then, the plate was washed five times with PBST. Lastly, 100 μl of TMB substrate (Cell Signaling) was added to each well of the plate to induce color development for 3 min. and then, the reaction was ceased by the addition of 100 μl of Stop solution (Cell Signaling) and OD450 values were measured on a plate reader (Molecular Devices).

B1: SAIT-ANG2-AB-m1B6 (antibody, V domains shown)
VH: QIQLVQSGPELKKPGETVKISCKASGYTFTNYGMNWVKQAPGKGLKWMGWINTYTGEPTYADDFKGRFAFSLETSASTAYLQINNLKNEDTATYFCARDHDGYLMDYWGQGTSVTVSS
VL: DIQMTQTTSSLSASLGDRVTISCSTSQGISNYLNWYQQKPDGTVKLLIFYTSSLHSGVPSRFSGSGSGTDYSLTISNLEPEDIATYYCQQYSKLPYTFGGGTKLEIK
notes: also called hybridoma KCLRF-BP-00307
- Kd [1]: 2.3 nM
- Kd [2]: 2.1 nM
- binding result (hAng1): no binding (tested: 100 nM (highest antibody concentration))
- IC50 (FLAG-tagged hAng-2): 2.89 nM
